The record followed here is the supplement of paper PMC11246515.

± gives the standard deviation of the averaged measurements.

This series in a line: total protein half-life in vivo (active degradation + dilution); higher = more stable protein.
Setting [1] is: E. coli NCM3722 delta-clpP delta-lon delta-hslV, growth: N-lim chemostat, doubling time 6 h.
Setting [2] is: wild type E. coli NCM3722, growth: P-lim chemostat, doubling time 6 h.
Where [3] appears, read: E. coli NCM3722 delta-clpP, growth: N-lim chemostat, doubling time 6 h.
The mark [4] stands for this setting: E. coli NCM3722 delta-hslV, growth: N-lim chemostat, doubling time 6 h.
[5] abbreviates: E. coli NCM3722 delta-lon, growth: N-lim chemostat, doubling time 6 h.
The mark [6] stands for this setting: E. coli NCM3722 delta-smpB, growth: N-lim chemostat, doubling time 6 h.
Where [7] appears, read: wild type E. coli NCM3722, growth: C-lim chemostat, doubling time 6 h.
[8] abbreviates: wild type E. coli NCM3722, growth: C-lim chemostat, doubling time 12 h.
Where [9] appears, read: wild type E. coli NCM3722, growth: N-lim chemostat, doubling time 6 h.
Where [10] appears, read: wild type E. coli NCM3722, growth: N-lim chemostat, doubling time 12 h.
[11] abbreviates: wild type E. coli NCM3722, growth: P-lim chemostat, doubling time 12 h.
Setting [12] is: wild type E. coli NCM3722, growth: C-lim chemostat, doubling time 3 h.

In the case of “MTPWFLYLIRTADNKLYTGITTDVERRYQQHQSGKGAKALRGKGELTLVFSAPVGDRSLALRAEYRVKQLTKRQKERLVAEGAGFAELLSSLQTPEIKSD”, the “total protein half-life in vivo” value turned out to be 6.282 ± 0.0083 h under setting [1] and 1.75 h under setting [2].

Consider “MKPDAHQVKQFLLNLQDTICQQLTAVDGAEFVEDSWQREAGGGGRSRVLRNGGVFEQAGVNFSHVHGEAMPASATAHRPELAGRSFEAMGVSLVVHPHNPYVPTSHANVRFFIAEKPGADPVWWFGGGFDLTPFYGFEEDAIHWHRTARDLCLPFGEDVYPRYKKWCDEYFYLKHRNEQRGIGGLFFDDLNTPDFDRCFAFMQAVGKGYTDAYLPIVERRKAMAYGERERNFQLYRRGRYVEFNLVWDRGTLFGLQTGGRTESILMSMPPLVRWEYDYQPKDGSPEAALSEFIKVRDWV”, for which the “total protein half-life in vivo” value under setting [1] worked out at 5.53 ± 1.4 h; the “total protein half-life in vivo” value under setting [3] was determined as 4.55 ± 0.073 h; the “total protein half-life in vivo” value under setting [4] came out at 5 ± 0.44 h; the “total protein half-life in vivo” value under setting [5] is 5.01 ± 0.37 h; the “total protein half-life in vivo” value under setting [6] amounted to 4.05 ± 0.34 h; the “total protein half-life in vivo” value under setting [7] came to 5.24 ± 0.9 h. In addition, the “total protein half-life in vivo” value under setting [8] came to 10.1 ± 0.14 h; the “total protein half-life in vivo” value under setting [9] amounted to 4.29 ± 0.35 h; the “total protein half-life in vivo” value under setting [10] stood at 7.38 ± 0.34 h; the “total protein half-life in vivo” value under setting [2] worked out at 6.06 ± 0.66 h; the “total protein half-life in vivo” value under setting [11] was 11.7 ± 0.97 h.

In the case of “MFNGRPFPVDAFPKIIRNAIYEVEQHTQAPQGLIAASALGVISLACQNRIDVCRLNNLRGPVSLFLMTLAESGERKSTVDKLLMKPLYQLEEDLFEKYTHDLTAWRNDEAIFNIEKKALMSKLKSDIRRNKDHLATNERLKELLTTNPKAPVRFKFLFNDATPAAIKAHLCGHWRSVGIMSDEAGIIFNGYTLNELPFINKMWDGSIFTVERKNEPEKLIRDARITLSLMVQPNVFKGYIDRKGDMAKGIGFFARCLMCQPASTQGNRKISNPIFSNEHLPVFHQRLMEIVNESIIKINENNRICLRFSAEAERHWIEFYNQVESEMRMIGLLYDFKDYASKMAENMARLAALLHYFSGDGGDISVTAVKAAVEIVAWYIEEYIRLFSKKEEFSLDVSEADELYCWIKDYCTQKFSSCIKKNIILQFGPNKFRNRDKANELIRILISQNKIFISSWGKTKIINITHCVF”, under setting [1], the “total protein half-life in vivo” value amounted to 4.5 h.

On to “MQPFGVLDRYIGKTIFTTIMMTLFMLVSLSGIIKFVDQLKKAGQGSYDALGAGMYTLLSVPKDVQIFFPMAALLGALLGLGMLAQRSELVVMQASGFTRMQVALSVMKTAIPLVLLTMAIGEWVAPQGEQMARNYRAQAMYGGSLLSTQQGLWAKDGNNFVYIERVKGDEELGGISIYAFNENRRLQSVRYAATAKFDPEHKVWRLSQVDESDLTNPKQITGSQTVSGTWKTNLTPDKLGVVALDPDALSISGLHNYVKYLKSSGQDAGRYQLNMWSKIFQPLSVAVMMLMALSFIFGPLRSVPMGVRVVTGISFGFVFYVLDQIFGPLTLVYGIPPIIGALLPSASFFLISLWLLMRKS [P0ADC6]”, for which the “total protein half-life in vivo” value under setting [3] was found to be 6.53 ± 0.4 h; the “total protein half-life in vivo” value under setting [4] was determined as 6.81 ± 0.8 h; the “total protein half-life in vivo” value under setting [5] was determined as 6.01 ± 0.47 h; the “total protein half-life in vivo” value under setting [6] worked out at 6.08 ± 0.48 h; the “total protein half-life in vivo” value under setting [7] came out at 6.69 ± 0.65 h; the “total protein half-life in vivo” value under setting [8] came out at 12.3 ± 0.43 h. For the same sequence, the “total protein half-life in vivo” value turned out to be 6.06 ± 0.099 h under setting [9], 12.9 ± 0.5 h under setting [10], 6.22 ± 0.49 h under setting [2] and 13.5 ± 0.88 h under setting [11].

For the sequence “MRRILSVLLENESGALSRVIGLFSQRGYNIESLTVAPTDDPTLSRMTIQTVGDEKVLEQIEKQLHKLVDVLRVSELGQGAHVEREIMLVKIQASGYGRDEVKRNTEIFRGQIIDVTPSLYTVQLAGTSGKLDAFLASIRDVAKIVEVARSGVVGLSRGDKIMR”, the “total protein half-life in vivo” value was 5.652 ± 0.022 h under setting [1]; 6.01 ± 0.31 h under setting [3]; 5.93 ± 0.45 h under setting [4]; 5.9 ± 0.55 h under setting [5]; 5.37 ± 0.21 h under setting [6]; 3.07 ± 0.047 h under setting [12]. Also, the “total protein half-life in vivo” value is, setting by setting: under setting [7], 5.93 ± 0.13 h; under setting [8], 10.5 ± 0.55 h; under setting [9], 5.72 ± 0.27 h; under setting [10], 9.51 ± 0.46 h; under setting [2], 5.98 ± 0.1 h; under setting [11], 12.4 ± 0.78 h.

Regarding “MTLEWWFAYLLTSIILSLSPGSGAINTMTTSLNHGYRGAVASIAGLQTGLAIHIVLVGVGLGTLFSRSVIAFEVLKWAGAAYLIWLGIQQWRAAGAIDLKSLASTQSRRHLFQRAVFVNLTNPKSIVFLAALFPQFIMPQQPQLMQYIVLGVTTIVVDIIVMIGYATLAQRIALWIKGPKQMKALNKIFGSLFMLVGALLASARHA [P0AG34]”, the “total protein half-life in vivo” value under setting [3] was determined as 2.02 h; the “total protein half-life in vivo” value under setting [4] was found to be 1.51 h; the “total protein half-life in vivo” value under setting [6] was 1.73 ± 0.21 h; the “total protein half-life in vivo” value under setting [12] is 0.913 h; the “total protein half-life in vivo” value under setting [7] is 1.47 h; the “total protein half-life in vivo” value under setting [8] worked out at 2.28 h. The “total protein half-life in vivo” value under setting [9] was 2.62 h and the “total protein half-life in vivo” value under setting [11] was 3.7 h.

Turning to “MLSIKDLHVSVEDKAILRGLSLDVHPGEVHAIMGPNGSGKSTLSATLAGREDYEVTGGTVEFKGKDLLALSPEDRAGEGIFMAFQYPVEIPGVSNQFFLQTALNAVRSYRGQETLDRFDFQDLMEEKIALLKMPEDLLTRSVNVGFSGGEKKRNDILQMAVLEPELCILDESDSGLDIDALKVVADGVNSLRDGKRSFIIVTHYQRILDYIKPDYVHVLYQGRIVKSGDFTLVKQLEEQGYGWLTEQQ”, the “total protein half-life in vivo” value by setting is: under setting [1], 4.81 ± 0.069 h; under setting [3], 5.52 ± 1.8 h; under setting [4], 4.19 ± 0.79 h; under setting [5], 4.25 ± 0.1 h; under setting [6], 3.63 ± 0.052 h; under setting [12], 2.88 ± 0.13 h. Also, the “total protein half-life in vivo” value was found to be 5.37 ± 0.23 h under setting [7]; 10.1 ± 0.62 h under setting [8]; 3.75 ± 0.3 h under setting [9]; 5.68 ± 0.23 h under setting [10]; 5.47 ± 0.51 h under setting [2]; 9.75 ± 0.2 h under setting [11].
